Measurements as given in US20100263089A1, “USE OF P[…] FROM A PA1B LEGUME ALBUMEN AS INSECTICIDE” (Institut National de la Recherche Agronomique, priority 1998, published 2010).

Experiments:
[1] = Stability of the entomotoxic activity (storage in dry seeds, heating)
Description: In addition, this activity is not affected by heating to 100° C.

humans or higher animals = details: present in legumes of the conventional diet; no test described; cited from earlier work

## PAlb protein: pea albumin PA1b (SEQ ID NO: 7) described by HIGGINS et al. (ASCNGVCSPFEMPPCGTSACRCIPVGLVVGYCRNPSG)
[1]; dry seeds stored for several years
  entomotoxic/insecticidal activity after storage: conserves its insecticidal activity
[1]; heating to 100° C.
  entomotoxic/insecticidal activity after heating: not affected
Humans or higher animals
  toxicity for humans or higher animals: not toxic
